Reference: US20110263454A1, “Methods of Identifying Functional Characteristics of Promoters, Transcription Modifying Proteins and Transcription Modulating Agents” (Salk Institute for Biological Studies, priority 2008, published 2011)

Experiments:
Type in all cases: cell-based, mouse
mPgc1b promoter = assay: NHR-promoter luciferase screen, mPgc1b promoter; details: for Luc. act., normalized to lacZ / Normalized Luc. act., normalized to control: PGC1b promoter reporter, co-transfected HR, without or with its ligand; for Normalized Luc. act., normalized to control: relative to control; for luciferase activity normalized to lacZ activity and to a control, mPgc1b: mPgc1b promoter-luciferase, CV-1 cells, NHR +/- ligand, control = 1.00
Summary of the method: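 CV-1 cells co-transfected with NHR homodimer or NHR/RXR heterodimer (pcDNA3.1, C-terminal V5H6 tag), promoter-luciferase construct and LacZ transfection control. Orphan receptors screened without ligand. Luciferase normalized to LacZ and to no-NHR/no-ligand control.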

mUCP1 promoter = assay: NHR-promoter luciferase screen, mUCP1 promoter; details: for Luc. act., normalized to lacZ / Normalized Luc. act., normalized to control: mUCP1 promoter reporter, co-transfected HR, with or without its ligand; for Normalized Luc. act., normalized to control: relative to control; for luciferase activity normalized to lacZ activity and to a control, mUCP!: mUCP! promoter-luciferase, CV-1 cells, NHR +/- ligand, control = 1.00
Summary of the method: (§1)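 CV-1 cells were co-transfected with 50 ng NHR (homodimer or NHR/RXR heterodimer), 100 ng promoter-luciferase construct and 50 ng LacZ. Luciferase was normalized to LacZ and to a no-NHR/no-ligand control.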

mGhrelin promoter = assay: NHR-promoter luciferase screen, mGhrelin promoter; details: for Luc. act., normalized to lacZ / Normalized Luc. act., normalized to control: Table 8, mGhrelin; for Results of assays of transcription factor (+/- ligand) with mGhrelin: Table 6d, luciferase activity relative to control (control = 1.00); for luciferase/LacZ, mGhrelin (selected results): mGhrelin promoter-luciferase, NHR +/- ligand, control = 1.0
Summary of the method: as §1

mAgrp promoter = assay: NHR-promoter luciferase screen, mAgrp promoter; details: for Results of assays of transcription factor (+/- ligand) with mAgrp: Table 6d, luciferase activity relative to control (control = 1.00); for luciferase/LacZ, mAgrp (selected results): mAgrp promoter-luciferase, NHR +/- ligand, control = 1.0; for Luc. act., normalized to lacZ / Normalized Luc. act., normalized to control: mAgrp promoter, HR component with or without ligand; for Normalized Luc. act., normalized to control: relative to control
Summary of the method: as §1

mAdiponectin promoter = assay: NHR-promoter luciferase screen, mAdiponectin promoter; details: for Luc. act., normalized to lacZ / Normalized Luc. act., normalized to control: Adiponectin, HR component without or with its ligand; for mAdiponectin promoter reporter activity: transcription factor +/- ligand, control = 1.00
Summary of the method: as §1

Row | Molecule | Luc. act., normalized to lacZ (mPgc1b promoter) | Normalized Luc. act., normalized to control (mPgc1b promoter) | luciferase activity normalized to lacZ activity and to a control, mPgc1b (mPgc1b promoter) | Luc. act., normalized to lacZ (mUCP1 promoter) | Normalized Luc. act., normalized to control (mUCP1 promoter) | luciferase activity normalized to lacZ activity and to a control, mUCP! (mUCP1 promoter) | Luc. act., normalized to lacZ (mGhrelin promoter) | Normalized Luc. act., normalized to control (mGhrelin promoter) | Results of assays of transcription factor (+/- ligand) with mGhrelin (mGhrelin promoter) | luciferase/LacZ, mGhrelin (selected results) (mGhrelin promoter) | Results of assays of transcription factor (+/- ligand) with mAgrp (mAgrp promoter) | luciferase/LacZ, mAgrp (selected results) (mAgrp promoter) | Luc. act., normalized to lacZ (mAgrp promoter) | Normalized Luc. act., normalized to control (mAgrp promoter) | Luc. act., normalized to lacZ (mAdiponectin promoter) | Normalized Luc. act., normalized to control (mAdiponectin promoter) | mAdiponectin promoter reporter activity (mAdiponectin promoter)
1 | ERR2: Estrogen Related Receptor β (NR3B2, ERRb), cDNA driver (protein, UniProt O95718 1-433, looked up) Steroid hormone receptor ERR2: MSSDDRHLGSSCGSFIKTEPSSPSSGIDALSHHSPSGSSDASGGFGLALGTHANGLDSPPMFAGAGLGGTPCRKSYEDCASGIMEDSAIKCEYMLNAIPKRLCLVCGDIASGYHYGVASCEACKAFFKRTIQGNIEYSCPATNECEITKRRRKSCQACRFMKCLKVGMLKEGVRLDRVRGGRQKYKRRLDSESSPYLSLQISPPAKKPLTKIVSYLLVAEPDKLYAMPPPGMPEGDIKALTTLCDLADRELVVIIGWAKHIPGFSSLSLGDQMSLLQSAWMEILILGIVYRSLPYDDKLVYAEDYIMDEEHSRLAGLLELYRAILQLVRRYKKLKVEKEEFVTLKALALANSDSMYIEDLEAVQKLQDLLHEALQDYELSQRHEEPWRTGKLLLTLPLLRQTAAKAVQHFYSVKLQGKVPMHKLFLEMLEAKV | 12.7 | 1.1 | 1.07 | 13.1 | 3.0 | 2.95 | 365.8 | 7.0 | 7.00 | 7.0 | 1.64 | 1.6 | 65.0 | 1.6 | 55.3 | 0.9 | 0.88
2 | HNF4g: Hepatocyte Nuclear Factor γ (NR2A2), cDNA driver (protein, UniProt Q14541 1-408, looked up) Hepatocyte nuclear factor …: MNTTDNGVNCLCAICGDRATGKHYGASSCDGCKGFFRRSIRKSHVYSCRFSRQCVVDKDKRNQCRYCRLRKCFRAGMKKEAVQNERDRISTRRSTFDGSNIPSINTLAQAEVRSRQISVSSPGSSTDINVKKIASIGDVCESMKQQLLVLVEWAKYIPAFCELPLDDQVALLRAHAGEHLLLGATKRSMMYKDILLLGNNYVIHRNSCEVEISRVANRVLDELVRPFQEIQIDDNEYACLKAIVFFDPDAKGLSDPVKIKNMRFQVQIGLEDYINDRQYDSRGRFGELLLLLPTLQSITWQMIEQIQFVKLFGMVKIDNLLQEMLLGGASNDGSHLHHPMHPHLSQDPLTGQTILLGPMSTLVHADQISTPETPLPSPPQGSGQEQYKIAANQASVISHQHLSKQKQL | 6.8 | 0.6 | 0.57 | 3.5 | 0.8 | 0.79 | 58.1 | 1.1 | 1.11 | – | 0.77 | – | 30.4 | 0.8 | 45.4 | 0.7 | 0.72
3 | TR4: Testicular Orphan Nuclear Receptor 4 (NR2C2), cDNA driver (protein, UniProt P49116 1-596, looked up) Nuclear receptor subfamily 2 …: MTSPSPRIQIISTDSAVASPQRIQIVTDQQTGQKIQIVTAVDASGSPKQQFILTSPDGAGTGKVILASPETSSAKQLIFTTSDNLVPGRIQIVTDSASVERLLGKTDVQRPQVVEYCVVCGDKASGRHYGAVSCEGCKGFFKRSVRKNLTYSCRSNQDCIINKHHRNRCQFCRLKKCLEMGMKMESVQSERKPFDVQREKPSNCAASTEKIYIRKDLRSPLIATPTFVADKDGARQTGLLDPGMLVNIQQPLIREDGTVLLATDSKAETSQGALGTLANVVTSLANLSESLNNGDTSEIQPEDQSASEITRAFDTLAKALNTTDSSSSPSLADGIDTSGGGSIHVISRDQSTPIIEVEGPLLSDTHVTFKLTMPSPMPEYLNVHYICESASRLLFLSMHWARSIPAFQALGQDCNTSLVRACWNELFTLGLAQCAQVMSLSTILAAIVNHLQNSIQEDKLSGDRIKQVMEHIWKLQEFCNSMAKLDIDGYEYAYLKAIVLFSPDHPGLTSTSQIEKFQEKAQMELQDYVQKTYSEDTYRLARILVRLPALRLMSSNITEELFFTGLIGNVSIDSIIPYILKMETAEYNGQITGASL | 17.3 | 1.5 | 1.46 | 26.4 | 5.9 | 5.94 | 273.5 | 5.2 | 5.23 | 5.2 | 2.06 | 2.1 | 81.8 | 2.1 | 296.1 | 4.7 | 4.71
4 | TR2: Testicular Orphan Nuclear Receptor 2 (NR2C1), cDNA driver (protein, UniProt P13056 1-603, looked up) Nuclear receptor subfamily 2 …: MATIEEIAHQIIEQQMGEIVTEQQTGQKIQIVTALDHNTQGKQFILTNHDGSTPSKVILARQDSTPGKVFLTTPDAAGVNQLFFTTPDLSAQHLQLLTDNSPDQGPNKVFDLCVVCGDKASGRHYGAVTCEGCKGFFKRSIRKNLVYSCRGSKDCIINKHHRNRCQYCRLQRCIAFGMKQDSVQCERKPIEVSREKSSNCAASTEKIYIRKDLRSPLTATPTFVTDSESTRSTGLLDSGMFMNIHPSGVKTESAVLMTSDKAESCQGDLSTLANVVTSLANLGKTKDLSQNSNEMSMIESLSNDDTSLCEFQEMQTNGDVSRAFDTLAKALNPGESTACQSSVAGMEGSVHLITGDSSINYTEKEGPLLSDSHVAFRLTMPSPMPEYLNVHYIGESASRLLFLSMHWALSIPSFQALGQENSISLVKAYWNELFTLGLAQCWQVMNVATILATFVNCLHNSLQQDKMSTERRKLLMEHIFKLQEFCNSMVKLCIDGYEYAYLKAIVLFSPDHPSLENMEQIEKFQEKAYVEFQDYITKTYPDDTYRLSRLLLRLPALRLMNATITEELFFKGLIGNIRIDSVIPHILKMEPADYNSQIIGHSI | 9.8 | 0.8 | 0.83 | 8.1 | 1.8 | 1.82 | 63.2 | 1.2 | 1.21 | – | 0.98 | – | 39.0 | 1.0 | 37.5 | 0.6 | 0.60
5 | Erb: Estrogen Receptor β (NR3A2, ERb), cDNA driver (protein, UniProt Q92731 1-530, looked up) Estrogen receptor beta: MDIKNSPSSLNSPSSYNCSQSILPLEHGSIYIPSSYVDSHHEYPAMTFYSPAVMNYSIPSNVTNLEGGPGRQTTSPNVLWPTPGHLSPLVVHRQLSHLYAEPQKSPWCEARSLEHTLPVNRETLKRKVSGNRCASPVTGPGSKRDAHFCAVCSDYASGYHYGVWSCEGCKAFFKRSIQGHNDYICPATNQCTIDKNRRKSCQACRLRKCYEVGMVKCGSRRERCGYRLVRRQRSADEQLHCAGKAKRSGGHAPRVRELLLDALSPEQLVLTLLEAEPPHVLISRPSAPFTEASMMMSLTKLADKELVHMISWAKKIPGFVELSLFDQVRLLESCWMEVLMMGLMWRSIDHPGKLIFAPDLVLDRDEGKCVEGILEIFDMLLATTSRFRELKLQHKEYLCVKAMILLNSSMYPLVTATQDADSSRKLAHLLNAVTDALVWVIAKSGISSQQQSMRLANLLMLLSHVRHASNKGMEHLLNMKCKNVVPVYDLLLEMLNAHVLRGCKSSITGSECSPAEDSKSKEGSQNPQSQ | 9.2 | 0.8 | 0.77 | 3.3 | 0.8 | 0.75 | 47.5 | 0.9 | 0.91 | – | 0.98 | – | 39.0 | 1.0 | 68.6 | 1.1 | 1.09
